Here are results for seven molecules from patent publication US20240301086A1 (APTEVO RESEARCH AND DEVELOPMENT, published 2024).

For test [1], the target named is T1, Full-length Human PSMA (TSC435), on cells (human, UniProt Q04609 1-750).
T1 construct: also called CHOK1SV/huPSMA; PSMA on C4-2B, 22RV1, LNCaP, MDA-PCa-2b cells
Nature of the test: flow cytometry on C4-2B cells, PE goat anti-human IgG Fc secondary, MFI (median). (A flow cytometer gives signals particle by particle.)

Test [2] deals with T2, human CD3ε in the TCR/CD3 complex on Jurkat cells (human, UniProt P07766 23-207).
T2 construct: whole, on cells; On the cells it stands in the whole TCR/CD3 complex; also called CD3 (+) cells; CD3-expressing Jurkat cells
Nature of the test: flow cytometry on Jurkat cells, PE goat anti-human IgG Fc secondary, MFI (median).

Test [3] concerns the target T1, Full-length Human PSMA (TSC435), on …. Nature of the test: flow cytometry on C4-2B cells, PE goat anti-human IgG Fc secondary, MFI (median). As for the experimental part: The PSMA-binding domain PSMA01023 was evaluated in several different structural formats, including an alternative Fc region with different mutations to eliminate effector function. The PSMA01023 binding domain was configured in scFv-Fc format in VL-VH (PSMA01036) and VH-VL (PSMA01037) orientations and in Fc-scFv format in VL-VH (PSMA01040) and VH-VL (PSMA01041) orientations. These molecules were evaluated for the impact of the orientation of the scFv domains (VH-VL versus VL-VH) and position on the Fc (N- vs. C-terminus) on binding to PSMA (+) tumor cells.
C4-2B and 22RV1 cells were labelled at approximately 100,000 cells per well, in 96-well plates, with serial dilutions of PSMA-binding constructs ranging from of 0.1 to 300 nM for 30 min on ice, followed by washes and incubation with PE-labeled minimum cross species reactive secondary antibody, goat anti-human IgG Fcγ, F(ab′)2 (Jackson Laboratory) for 30 minutes on ice. Washes and incubation were done in staining buffer (PBS with 0.2% BSA and 2 mM EDTA). Cells were collected using a BDM LSRII or a BD FACSymphony™ flow cytometer (BD Biosciences) and analyzed by FlowJo flow cytometry analysis software. Median fluorescence intensity (MFI) of bound molecules on cells was determined after exclusion of doublets. Graphs were plotted using GraphPad Prism 7®.
This is another data set of the same source.

T1 sequence (Q04609 whole entry): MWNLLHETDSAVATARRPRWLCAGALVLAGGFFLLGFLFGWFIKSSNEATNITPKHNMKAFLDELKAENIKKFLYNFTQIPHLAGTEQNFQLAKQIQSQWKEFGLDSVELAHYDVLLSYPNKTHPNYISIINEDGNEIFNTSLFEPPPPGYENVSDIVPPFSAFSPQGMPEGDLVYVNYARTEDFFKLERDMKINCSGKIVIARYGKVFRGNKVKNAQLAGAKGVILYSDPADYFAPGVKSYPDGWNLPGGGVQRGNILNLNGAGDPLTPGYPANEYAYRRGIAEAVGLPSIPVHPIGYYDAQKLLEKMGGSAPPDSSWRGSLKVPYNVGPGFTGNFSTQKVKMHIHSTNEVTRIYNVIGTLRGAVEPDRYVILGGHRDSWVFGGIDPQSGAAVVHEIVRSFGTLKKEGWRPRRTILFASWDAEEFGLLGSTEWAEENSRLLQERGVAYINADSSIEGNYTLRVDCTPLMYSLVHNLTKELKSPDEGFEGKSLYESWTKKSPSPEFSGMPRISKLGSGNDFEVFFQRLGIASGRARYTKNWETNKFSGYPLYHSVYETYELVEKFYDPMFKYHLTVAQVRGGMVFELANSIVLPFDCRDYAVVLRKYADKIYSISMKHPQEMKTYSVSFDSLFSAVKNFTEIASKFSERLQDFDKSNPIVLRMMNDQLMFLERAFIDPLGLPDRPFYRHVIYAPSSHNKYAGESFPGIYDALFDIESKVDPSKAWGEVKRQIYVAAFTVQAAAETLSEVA
T2 sequence (P07766 23-207, one chain of several): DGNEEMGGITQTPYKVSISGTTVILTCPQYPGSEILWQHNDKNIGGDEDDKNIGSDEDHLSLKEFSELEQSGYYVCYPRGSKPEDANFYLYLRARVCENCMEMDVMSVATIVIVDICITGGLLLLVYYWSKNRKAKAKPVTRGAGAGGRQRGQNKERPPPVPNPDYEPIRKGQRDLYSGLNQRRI

B1: PSMA01072 Anti PSMA scFv x Anti CD3 scFv ADAPTIR (bispecific antibody)
chain: QVQLVQSGAEVKKPGASVKVSCKASGYTFTDYYMHWVRQAPGQGLEWMGYFNPYNDYTRYAQKFQGRVTMTRDTSTSTVYMELSSLRSEDTAVYYCARSDGYYDAMDYWGQGTTVTVSSGGGGSGGGGSGGGGSGGGGSDIQMTQSPSSLSASVGDRVTITCRASKSISKYLAWYQQKPGKAPKLLIHSGSSLESGVPSRFSGSGSGTEFTLTISSLQPDDFATYYCQQHIEYPWTFGQGTKVEIKEPKSSDKTHTCPPCPAPPAAAPSVFLFPPKPKDTLMISRTPEVTCVVVDVSHEDPEVKFNWYVDGVEVHNAKTKPREEQYNSTYRVVSVLTVLHQDWLNGKEYKCAVSNKALPAPIEKTISKAKGQPREPQVYTLPPSRDELTKNQVSLTCLVKGFYPSDIAVEWESNGQPENNYKTTPPVLDSDGSFFLYSKLTVDKSRWQQGNVFSCSVMHEALHNHYTQKSLSLSPGGGGSPSQVQLVQSGAEVKKPGASVKVSCKASGYTFTRSTMHWVRQAPGQGLEWIGYINPSSAYTNYAQKFQGRVTLTADKSTSTAYMELSSLRSEDTAVYYCASPQVHYDYNGFPYWGQGTLVTVSSGGGGSGGGGSGGGGSGGGGSDIQMTQSPSSLSASVGDRVTITCRASSSVSYMNWYQQKPGKAPKRWIYDSSKLASGVPSRFSGSGSGTDFTLTISSLQPEDFATYYCQQWSRNPPTFGQGTKVEIKRS
notes: also called PSMA1072
The EC50 is the concentration giving half of the maximal effect. Lower therefore signals a more potent agent. For B1, the EC50 in test [1] and in test [2] was 1 nM each time.

B2: PSMA01036 Anti-PSMA scFv-Fc (Fc fusion)
chain: DIQMTQSPSTLSASVGDRVTITCRASKSISKYLAWYQQKPGKAPKLLIHSGSSLESGVPSRFSGSGSGTEFTLTISSLQPDDFATYYCQQHIEYPWTFGQGTKVEIKGGGGSGGGGSGGGGSGGGGSQVQLVQSGAEVKKPGASVKVSCKASGYTFTDYYMHWVRQAPGQGLEWMGYFNPYNDYTRYAQKFQGRVTMTRDTSTSTVYMELSSLRSEDTAVYYCARSDGYYDAMDYWGQGTTVTVSSSEPKSSDKTHTCPPCPAPPAAAPSVFLFPPKPKDTLMISRTPEVTCVVVDVSHEDPEVKFNWYVDGVEVHNAKTKPREEQYNSTYRVVSVLTVLHQDWLNGKEYKCAVSNKALPAPIEKTISKAKGQPREPQVYTLPPSRDELTKNQVSLTCLVKGFYPSDIAVEWESNGQPENNYKTTPPVLDSDGSFFLYSKLTVDKSRWQQGNVFSCSVMHEALHNHYTQKSLSLSPGK
Regarding B2, the binding result in test [3] was “binds”.

B3: PSMA01040 Fc-linker anti PSMA scFv (Fc fusion)
chain: SSEPKSSDKTHTCPPCPAPPAAAPSVFLFPPKPKDTLMISRTPEVTCVVVDVSHEDPEVKFNWYVDGVEVHNAKTKPREEQYNSTYRVVSVLTVLHQDWLNGKEYKCAVSNKALPAPIEKTISKAKGQPREPQVYTLPPSRDELTKNQVSLTCLVKGFYPSDIAVEWESNGQPENNYKTTPPVLDSDGSFFLYSKLTVDKSRWQQGNVFSCSVMHEALHNHYTQKSLSLSPGGGGSPSDIQMTQSPSTLSASVGDRVTITCRASKSISKYLAWYQQKPGKAPKLLIHSGSSLESGVPSRFSGSGSGTEFTLTISSLQPDDFATYYCQQHIEYPWTFGQGTKVEIKGGGGSGGGGSGGGGSGGGGSQVQLVQSGAEVKKPGASVKVSCKASGYTFTDYYMHWVRQAPGQGLEWMGYFNPYNDYTRYAQKFQGRVTMTRDTSTSTVYMELSSLRSEDTAVYYCARSDGYYDAMDYWGQGTTVTVSSR
As to B3, the binding result in test [3] is recorded as “binds”.

B4: PSMA01070 Anti PSMA scFv-Fc; Anti CD3 scFv-Fc (bispecific antibody)
chain 1: QVQLVQSGAEVKKPGASVKVSCKASGYTFTDYYMHWVRQAPGQGLEWMGYFNPYNDYTRYAQKFQGRVTMTRDTSTSTVYMELSSLRSEDTAVYYCARSDGYYDAMDYWGQGTTVTVSSGGGGSGGGGSGGGGSGGGGSDIQMTQSPSSLSASVGDRVTITCRASKSISKYLAWYQQKPGKAPKLLIHSGSSLESGVPSRFSGSGSGTEFTLTISSLQPDDFATYYCQQHIEYPWTFGQGTKVEIKEPKSSDKTHTCPPCPAPPAAAPSVFLFPPKPKDTLMISRTPEVTCVVVDVSHEDPEVKFNWYVDGVEVHNAKTKPREEQYNSTYRVVSVLTVLHQDWLNGKEYKCAVSNKALPAPIEKTISKAKGQPREPQVYTLPPSRDELTKNQVSLWCLVKGFYPSDIAVEWESNGQPENNYKTTPPVLDSDGSFFLYSKLTVDKSRWQQGNVFSCSVMHEALHNHYTQKSLSLSPG
chain 2: QVQLVQSGAEVKKPGASVKVSCKASGYTFTRSTMHWVRQAPGQGLEWIGYINPSSAYTNYAQKFQGRVTLTADKSTSTAYMELSSLRSEDTAVYYCASPQVHYDYNGFPYWGQGTLVTVSSGGGGSGGGGSGGGGSGGGGSDIQMTQSPSSLSASVGDRVTITCRASSSVSYMNWYQQKPGKAPKRWIYDSSKLASGVPSRFSGSGSGTDFTLTISSLQPEDFATYYCQQWSRNPPTFGQGTKVEIKEPKSSDKTHTCPPCPAPPAAAPSVFLFPPKPKDTLMISRTPEVTCVVVDVSHEDPEVKFNWYVDGVEVHNAKTKPREEQYNSTYRVVSVLTVLHQDWLNGKEYKCAVSNKALPAPIEKTISKAKGQPREPQVYTLPPSRDELTKNQVSLSCAVKGFYPSDIAVEWESNGQPENNYKTTPPVLDSDGSFFLVSKLTVDKSRWQQGNVFSCSVMHEALHNRFTQKSLSLSPG
As for B4, the concentration for a half-maximal effect (EC50) in test [1] was 30 nM; in test [2], 52 nM.

B5: PSMA01086 Anti PSMA scFv x Fc; Anti PSMA scFv x Fc x linker x Anti CD3 scFv (bispecific antibody)
chain 1: QVQLVQSGAEVKKPGASVKVSCKASGYTFTDYYMHWVRQAPGQGLEWMGYFNPYNDYTRYAQKFQGRVTMTRDTSTSTVYMELSSLRSEDTAVYYCARSDGYYDAMDYWGQGTTVTVSSGGGGSGGGGSGGGGSGGGGSDIQMTQSPSSLSASVGDRVTITCRASKSISKYLAWYQQKPGKAPKLLIHSGSSLESGVPSRFSGSGSGTEFTLTISSLQPDDFATYYCQQHIEYPWTFGQGTKVEIKEPKSSDKTHTCPPCPAPPAAAPSVFLFPPKPKDTLMISRTPEVTCVVVDVSHEDPEVKFNWYVDGVEVHNAKTKPREEQYNSTYRVVSVLTVLHQDWLNGKEYKCAVSNKALPAPIEKTISKAKGQPREPQVYTLPPSRDELTKNQVSLWCLVKGFYPSDIAVEWESNGQPENNYKTTPPVLDSDGSFFLYSKLTVDKSRWQQGNVFSCSVMHEALHNHYTQKSLSLSPG
chain 2: QVQLVQSGAEVKKPGASVKVSCKASGYTFTDYYMHWVRQAPGQGLEWMGYFNPYNDYTRYAQKFQGRVTMTRDTSTSTVYMELSSLRSEDTAVYYCARSDGYYDAMDYWGQGTTVTVSSGGGGGGGGSGGGGSGGGGSDIQMTQSPSSLSASVGDRVTITCRASKSISKYLAWYQQKPGKAPKLLIHSGSSLESGVPSRFSGSGSGTEFTLTISSLQPDDFATYYCQQHIEYPWTFGQGTKVEIKEPKSSDKTHTCPPCPAPPAAAPSVFLFPPKPKDTLMISRTPEVTCVVVDVSHEDPEVKFNWYVDGVEVHNAKTKPREEQYNSTYRVVSVLTVLHQDWLNGKEYKCAVSNKALPAPIEKTISKAKGQPREPQVYTLPPSRDELTKNQVSLSCAVKGFYPSDIAVEWESNGQPENNYKTTPPVLDSDGSFFLVSKLTVDKSRWQQGNVFSCSVMHEALHNRFTQKSLSLSPGGGGSPSDIQMTQSPSSLSASVGDRVTITCRASSSVSYMNWYQQKPGKAPKRWIYDSSKLASGVPSRFSGSGSGTDFTLTISSLQPEDFATYYCQQWSRNPPTFGQGTKVEIKGGGGSGGGGSGGGGSGGGGSQVQLVQSGAEVKKPGASVKVSCKASGYTFTRSTMHWVRQAPGQGLEWIGYINPSSAYTNYAQKFQGRVTLTADKSTSTAYMELSSLRSEDTAVYYCASPQVHYDYNGFPYWGQGTLVTVSS
Regarding B5, the results for the half-maximal effective concentration (EC50) in test [1] and in test [2] were 1 nM and over 261 nM, respectively.

B6: PSMA01041 Fc-linker-anti PSMA scFv (Fc fusion)
chain: SSEPKSSDKTHTCPPCPAPPAAAPSVFLFPPKPKDTLMISRTPEVTCVVVDVSHEDPEVKFNWYVDGVEVHNAKTKPREEQYNSTYRVVSVLTVLHQDWLNGKEYKCAVSNKALPAPIEKTISKAKGQPREPQVYTLPPSRDELTKNQVSLTCLVKGFYPSDIAVEWESNGQPENNYKTTPPVLDSDGSFFLYSKLTVDKSRWQQGNVFSCSVMHEALHNHYTQKSLSLSPGGGGSPSQVQLVQSGAEVKKPGASVKVSCKASGYTFTDYYMHWVRQAPGQGLEWMGYFNPYNDYTRYAQKFQGRVTMTRDTSTSTVYMELSSLRSEDTAVYYCARSDGYYDAMDYWGQGTTVTVSSGGGGSGGGGSGGGGSGGGGSDIQMTQSPSTLSASVGDRVTITCRASKSISKYLAWYQQKPGKAPKLLIHSGSSLESGVPSRFSGSGSGTEFTLTISSLQPDDFATYYCQQHIEYPWTFGQGTKVEIKR
With B6, the binding result in test [3] is recorded as “binds”.

B7: PSMA01037 Anti-PSMA scFv-Fc (Fc fusion)
chain: QVQLVQSGAEVKKPGASVKVSCKASGYTFTDYYMHWVRQAPGQGLEWMGYFNPYNDYTRYAQKFQGRVTMTRDTSTSTVYMELSSLRSEDTAVYYCARSDGYYDAMDYWGQGTTVTVSSGGGGSGGGGSGGGGSGGGGSDIQMTQSPSTLSASVGDRVTITCRASKSISKYLAWYQQKPGKAPKLLIHSGSSLESGVPSRFSGSGSGTEFTLTISSLQPDDFATYYCQQHIEYPWTFGQGTKVEIKSSSEPKSSDKTHTCPPCPAPPAAAPSVFLFPPKPKDTLMISRTPEVTCVVVDVSHEDPEVKFNWYVDGVEVHNAKTKPREEQYNSTYRVVSVLTVLHQDWLNGKEYKCAVSNKALPAPIEKTISKAKGQPREPQVYTLPPSRDELTKNQVSLTCLVKGFYPSDIAVEWESNGQPENNYKTTPPVLDSDGSFFLYSKLTVDKSRWQQGNVFSCSVMHEALHNHYTQKSLSLSPGK
notes: also called PSMA010137
Take B7: the binding result in test [3] is on record as “binds”.
